Measurements: patent publication US6444644B1, “Anticoagulant peptide fragments derived from apolipoprotein B-100” (University College London, priority 1996, dated 2002)
Values belong to the molecule of their own block, whether it stands above or below them.

Experiments:
thromboplastin [1] = biological target: T1, thromboplastin (Homo sapiens, UniProt P13726); experiment: Effect of thromboplastin peptide (58-66) on thromboplastin activity (one-stage prothrombin time assay); assay type: biochemical; conditions: for effect on the procoagulant activity of thromboplastin (in words) / Procoagulant Activity of thromboplastin: peptide 1 μM, thromboplastin 100 nM; for Procoagulant Activity of thromboplastin: 5 min, 37° C., distilled water 6.70 U/ml
T1 construct: purchased Gamidor Ltd. (Oxfordshire, U.K.)
Protocol: The control peptide ([…]) was reconstituted to 1 mM in distilled water. The control peptide was similar but not identical to the thromboplastin (58-66), in size, charge and amino acid composition but with a different sequence. In order to assess the effect of the thromboplastin peptide (58-66) on the activity of thromboplastin, samples of recombinant thromboplastin (100 nM) were incubated for 5 min, with the isolated thromboplastin-peptide ([…]), control peptide (1 μM) or distilled water at 37° C. prior to assaying using the one-stage prothrombin time assay. The activity was calculated from a thromboplastin standard curve.
Three aliquots of thromboplastin (100 nM) were incubated for 5 min, with the isolated thromboplastin peptide (1 μM), control peptide (1 μM) or distilled water at 37° C. prior to assaying using the one-stage prothrombin time assay. The activity was calculated from a thromboplastin standard curve. The data were obtained from 3 separate experiments.

[2] = biological target: T2, interaction of thromboplastin with apo B-100 (Homo sapiens, UniProt P13726); experiment: Influence of peptide 58-66 on the inhibition of thromboplastin by apo B-100; assay type: biochemical; conditions: peptide 1 μM, thromboplastin 100 nM, apo B-100 250 nM, 37° C., up to 180 min
T2 construct: purchased Gamidor Ltd. (Oxfordshire, U.K.) for thromboplastin; apoB-100 isolated and reconstituted in house
Protocol: (250 nM final concentration) in the presence and absence of the isolated thromboplastin peptide (1 μM) or control peptide (1 μM), at 37° C. Aliquots (100 μl) were removed at the start and at various intervals up to 180 min and assayed by means of the one-stage prothrombin time assay. The residual activity of thromboplastin measured in the samples was compared to the initial activity, at time zero, and percentage inhibition calculated.
Samples of thromboplastin (100 nM) were incubated with reconstituted apo B-100 (250 nM final concentration) in the presence (▪) and absence (▾) of the isolated thromboplastin peptide (1 μM), at 37° C. Aliquots ([…]) were removed at the start (time zero) and at various intervals up to 180 min and assayed by means of the one-stage prothrombin time assay. The data presented are representative of 5 independent experiments.

thromboplastin [3] = biological target: T1, thromboplastin; experiment: Time-course inhibition of thromboplastin procoagulant activity (one-stage prothrombin time and two-stage amidolytic assay); assay type: biochemical; conditions: 500 nM, 37° C.; for effect on thromboplastin (in words): up to 120 min
Protocol: The one stage prothrombin time assay was carried out by the addition of 100 μl of the sample to 100 μl of 25 mM CaCl2 solution and incubation prior to addition of 100 μl of control plasma. The clotting time was measured on the coagulometer. The two-stage amidolytic assay was carried according to published procedures. In all cases the thromboplastin activity was calculated from a standard curve prepared previously and the percentage inhibition was calculated as 100×[…].
The apolipoprotein B-100 control peptide (fragment 3358-3372) containing the sequence TRLTRKRGLKLATAL was reconstituted in distilled water to 1 mM. The freeze-dried samples were reconstituted in distilled water to a concentration of 1 mM. Two 200 μl samples of thromboplastin (10 U/ml) were incubated with 500 nM KRAD-14 or apolipoprotein B-100 control peptide at 37° C. for 45 min. Another set of 200 μl samples of thromboplastin (10 U/ml) were incubated with either 500 nM KRAD-98 or the chloramphenicol acetyltransferase control protein. […] Following the incubation the thromboplastin activity in all the samples was measured by means of the one-stage prothrombin time assay and the two-stage amidolytic assay and the percentage inhibition calculated against the control containing distilled water.
The above experiments were repeated using 1 ml samples containing recombinant thromboplastin (10 U/ml) mixed with either 500 nM KRAD-14, 500 nM KRAD-98 or 500 nM apolipoprotein B-100, reconstituted as described before. The concentrations used are equivalent to that of apolipoprotein B-100 in normal plasma. 100 μl of the each sample was removed immediately and assayed for thromboplastin activity, by means of the one-stage prothrombin time assay. The rest of the samples were incubated at 37° C. and further 100 μl samples were removed at intervals up to 120 min and measured as before. The percentage inhibition was calculated against a control sample of thromboplastin.
Three 1 ml samples containing recombinant thromboplastin (10 U/ml) were mixed with 500 nM KRAD-14 (solid square), 500 nM KRAD-98 (open square) or 500 nM apolipoprotein […] (triangle), reconstituted as described before. The concentrations used are equivalent to that of apolipoprotein B-100 in normal plasma. 100 μl of the each sample was removed immediately and assayed for thromboplastin activity, by means of the one-stage prothrombin time assay. The rest of the samples were incubated at 37° C. and further 100 μl samples were removed at intervals up to 120 min and measured as before. The thromboplastin activity was calculated from a standard curve prepared previously and the percentage inhibition was calculated as 100×[…]. The curves are typical of data from four sets of experiments.

[4] = biological target: T3, thromboplastin, reconstituted in phosphatidylcholine (Homo sapiens, UniProt P13726); experiment: Inhibition of delipidated thromboplastin reconstituted in phosphatidylcholine; assay type: biochemical; conditions: 500 nM sample, 37° C., 30 min; for Procoagulant Activity: distilled water control 4.70 U/ml
T3 construct: purchased Gamidor Ltd. (Oxfordshire, U.K.)
Protocol: In other experiments, recombinant thromboplastin (1 mg/ml) was delipidated with chloroform/methanol as described previously, to remove phosphatidylserine and other lipids and reconstituted with phosphatidylcholine (1 mg/ml) to differentiate between the effects of the prepared samples on the protein moiety of thromboplastin and any effects on the thromboplastin-associated phosphatidylserine. […] The percentage inhibition was calculated against the control sample.
Recombinant thromboplastin was delipidated to remove phosphatidylserine and other lipids and reconstituted at 1 mg/ml with phosphatidylcholine (1 mg/ml). […] The % Inhibition was calculated against the control. The data were obtained from 3 separate experiments.

[5] = system: T4, KRAD-14 peptide (recombinant, released from the biotinylated fusion protein with chymotrypsin)
T4 sequence: KAQSKKNKHRHSTT

[6] = biological target: recombinant thromboplastin (UniProt P13726 33-295, limits assumed); experiment: cell-based or functional assay
thromboplastin [7] = biological target: T1, thromboplastin; experiment: Inhibition of thromboplastin in the presence of plasma; assay type: biochemical
Protocol: […] The samples were then assayed by addition of 100 μl of […] CaCl2 solution and measurement on the coagulometer. The percentage inhibition in each case calculated against a similarly treated sample, containing thromboplastin only.

T1 sequence (P13726 33-295): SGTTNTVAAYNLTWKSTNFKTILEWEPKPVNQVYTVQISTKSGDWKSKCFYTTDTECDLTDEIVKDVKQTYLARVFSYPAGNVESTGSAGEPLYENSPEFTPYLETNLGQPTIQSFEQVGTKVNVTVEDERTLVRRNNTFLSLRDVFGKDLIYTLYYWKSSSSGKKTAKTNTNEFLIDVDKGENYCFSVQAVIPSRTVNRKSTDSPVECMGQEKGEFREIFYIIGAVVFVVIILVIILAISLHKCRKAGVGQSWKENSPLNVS
T3 sequence (P13726 33-295): as above
T2 sequence (P13726 33-295): as above

Molecule: VQGEESDNK [Control peptide]
effect on the procoagulant activity of thromboplastin (in words) (thromboplastin [1]): did not have any significant effect
Procoagulant Activity of thromboplastin (thromboplastin [1]): Control peptide (6.75 U/ml)

Molecule: thrombin
clotting ability and amidolytic proteolytic activity of thrombin (100 nM) after incubation with 500 nM peptide [5]: The KRAD-14 peptide (500 nM) did not affect either the clotting ability or the amidolytic proteolytic activity of thrombin (100 nM)

Molecule: TRLTRKRGLKLATAL [APO B-100 control peptide (3358-3372), apolipoprotein B-100 control peptide purchased from Sigma, reference compound]
effect on thromboplastin (in words) (thromboplastin [3]; listed as cationic peptide from apolipoprotein B-100 (fragment 3358-3372)): had no effect
effect on thromboplastin (in words) (thromboplastin [3]; listed as control 15 mer apolipoprotein B-100 (fragment 3358-3372) peptide): neither the control 15 mer apolipoprotein B-100 (fragment 3358-3372) peptide nor the chloramphenicol acetyltransferase control protein had any detectable effect
Procoagulant Activity [4]: (3358-3372) (4.68 U/ml)

Molecule: KAQSKKNKHRHSTT [KRAD-14 peptide (recombinant, released from the biotinylated fusion protein with chymotrypsin)]
% Inhibition of thromboplastin delipidated and reconstituted in phosphatidylcholine; 500 nM, 30 min, 37 C [6]: 99%
Procoagulant Activity left of thromboplastin reconstituted in phosphatidylcholine; 500 nM, 30 min, 37 C [6]: 0.05 U/ml

More lines, main results first:

endogenous procoagulant activity of the peptide (thromboplastin [1]; peptide alone): no endogenous procoagulant activity
Procoagulant Activity of thromboplastin (thromboplastin [1]): Peptide 56-66 (7.45 U/ml)
Molecule: DLTDEIVKD [thromboplastin-derived peptide (58-66), recombinant peptide of thromboplastin residues 58-66]
effect on the procoagulant activity of thromboplastin (in words) (thromboplastin [1]): enhanced the procoagulant activity of thromboplastin
effect on the rate of inhibition of thromboplastin activity by reconstituted apo B-100 [2]: accelerated the rate of inhibition of thromboplastin activity

inhibition of the procoagulant activity of thromboplastin (thromboplastin [3]; 90 min incubation): > 95%
% Inhibition ([4]; against distilled water control): 62%
Procoagulant Activity [4]: (1.79 U/ml)
Molecule: Reconstituted apolipoprotein B-100: apolipoprotein B-100 isolated from LDL by delipidation and gel filtration, reconstituted in phosphatidylcholine

% Inhibition of thromboplastin delipidated and reconstituted in phosphatidylcholine; 500 nM, 30 min, 37 C [6]: 62%
Procoagulant Activity left of thromboplastin reconstituted in phosphatidylcholine; 500 nM, 30 min, 37 C [6]: 1.79 U/ml
inhibition of procoagulant activity of thromboplastin, time course (FIG. 1), 70 min [6]: > 90%
Molecule: reconstituted apolipoprotein B-100 (from UniProt P04114 28-4563)

% Inhibition of thromboplastin delipidated and reconstituted in phosphatidylcholine; 500 nM, 30 min, 37 C [6]: 85%
Procoagulant Activity left of thromboplastin reconstituted in phosphatidylcholine; 500 nM, 30 min, 37 C [6]: 0.71 U/ml
inhibition of the procoagulant activity of thromboplastin (thromboplastin [3]; 45 min incubation): 95%
influence of plasma on the ability to inhibit thromboplastin activity (in words) (thromboplastin [7]; plasma included during the incubation prior to assaying, peptide 500 nM): did not significantly affect
inhibition of thromboplastin activity in the presence of plasma (thromboplastin [7]; plasma present, 37° C., 40 min incubation): 95%
Procoagulant Activity [4]: (0.71 U/ml)
B1: KRAD-98 peptide (recombinant, released with enterokinase) (peptide)
peptide: LKDESLWEKTGLKEFLKTTKQSFDLSVKAQYKKNKHRHSITNPLAVLCEFISQSIKSFDRHFEKNRNNALDFVTKSYNETKIKFDKYKAEKSHDELPR

% Inhibition of thromboplastin delipidated and reconstituted in phosphatidylcholine; 500 nM, 30 min, 37 C [6]: 0.4%
Procoagulant Activity left of thromboplastin reconstituted in phosphatidylcholine; 500 nM, 30 min, 37 C [6]: 4.68 U/ml
Molecule: TRLTRKRGLKLATAL [apolipoprotein B-100 control peptide (fragment 3358-3372)]
